Results on four compounds are retold here after patent US12552837B2, “Bicyclic peptide ligands with detectable moieties and uses thereof” (BicycleRD Limited, priority 2017, dated 2026).

*1 amine or outer side, *2 acyl side, *3 side chain or, on linkers, in order; H or OH if unused. Where a SMILES comes first, the peptide text is derived from it. Bridges are numbered along the chain shown (N, C = ends). [ ]: non-standard residue; d: D form. The star is where a group is joined. DOTA = O=C(O)CN1CCN(CC(=O)O)CCN(CC(=O)*)CCN(CC(=O)O)CC1; 1Nal = N[C@@H](Cc1cccc2ccccc12)C(=O)O; TBMB = c1c(C[*:1])cc(C[*:3])cc1C[*:2]; Palmitoyl = CCCCCCCCCCCCCCCC(=O)*; Tle = CC(C)(C)[C@H](N)C(=O)O; Aib = CC(C)(N)C(=O)O; βAla = NCCC(=O)O; Sar = CNCC(=O)O A value given as a limit tells only on which side of the number the result lay.

In one data set the target is MT1-MMP hemopexin domain (Homo sapiens, UniProt P50281). The data set is described as follows: Fluorescence polarization direct binding / competition assay to MT1-MMP hemopexin domain. As to the method:
Direct Binding Fluorescence Polarization or Anisotropy Assays are performed by titrating a constant concentration of fluorescent tracer (here, the fluoresceinated bicyclic peptide to be studied) with its binding partner (here, the MT1-MMP hemopexin domain). As the concentration of binding partner increases during the titration, the polarization signal changes in proportion to the fraction of bound and unbound material. This allows determination of […] (Kd) quantitatively. Assay data can be fit using standard ligand binding equations.
Typically, concentrations of the tracer are ideally well below the Kd of the tracer: titrant pair, and concentrations chosen are usually at ˜1 nM or less. The titrant (binding partner) concentration is varied from 0.1 nM up to typically 5 μM. The range is chosen such that the maximum change in fluorescent polarization can be observed. Buffers employed are phosphate buffered saline in the presence of 0.01% Tween. Experiments were run in black 384 well low-bind/low volume plates (Corning 3820), and the fluorescent polarization signal was measured using a BMG Pherastar FS plate reader. Fluorescent tracers referred to in the text are bicyclic peptides that have been fluoresceinated using 5,6-carboxyfluorescein. Fluoresceination may be performed on the N-terminal amino group of the peptide, which is separated from the bicycle core sequence by a sarcosine spacer (usually Sar10 (SEQ ID NO: 73)). This can be done during Fmoc solid phase synthesis or post-synthetically (after cyclization with the molecular scaffold reagent and purification) if the N-terminal amino group is unique to the peptide. Fluoresceination can also be performed on the C-terminus, usually on a Lysine introduced as the first C-terminal residue, which is then separated from the bicycle core sequence by a sarcosine spacer (usually Sar6 (SEQ ID NO: 69)). Thus, N-terminal tracers can have a molecular format described as Fluo-Ala-Sar10-A (SEQ ID NO: 72) (BicycleCoreSequence), and (BicycleCoreSequence)-A-Sar6-K (Fluo) (SEQ ID NO: 67) for a C-terminally fluoresceinated construct.
Fluorescent tracers used in the Examples are A-(17-69)-A-Sar6-K (Fluo) (SEQ ID NO: 67), A-(17-69-07)-A-Sar6-K (Fluo) (SEQ ID NO: 67), and A-(17-69-12)-A-Sar6-K (Fluo) (SEQ ID NO: 67). Due to the acidic nature of the 17-69 fluorescent peptides, they were typically prepared as concentrated DMSO stocks, from which dilution were prepared in 100 mM Tris pH 8 buffer.
Due to their high affinities to the MT1-MMP Hemopexin domain (PEX), the fluoresceinated derivatives of 17-69-07 and 17-69-12 (denoted as 17-69-07-N040 and 17-69-12-N005, respectively) can be used for competition experiments (using FP for detection). […] Dissociation of the complex can be measured quantitatively, and the Kd of the competitor (titrant) to the target protein determined. The advantage of the competition method is that the affinities of non-fluoresceinated bicyclic peptides can be determined accurately and rapidly.
Subsequently, the non-fluorescent competitor bicyclic peptide (usually just the bicycle core sequence) is titrated, such that it displaces the fluorescent tracer from the target protein. The displacement of the tracer is measured and associated with a drop in fluorescence polarization. The drop in fluorescence polarization is proportional to the fraction of target protein bound with the non-fluorescent titrant, and thus is a measure of the affinity of titrant to target protein. […]

Data set [1] is described as follows: Organ distribution of 177Lu-labelled peptides in HT1080 xenograft mice. The note with it: male, BALB/c nu/nu, mouse, HT1080 tumor, iv, total radioactivity; 1 h p.i. of 150 pmoles. The data set is classed as in vivo, BALB/c nu/nu mice. As to the method: (§1) General procedure for radiolabelling with Lu-177.
(§2) • 50 μL 0.25 M Na-Acetate buffer pH 5.2+0.1% Tween 20; • 10 μL [Lu-177]LuCl3 in 0.05 M HCl; and • 2 μL of the diluted peptide (2 nmols). […]
(§3) Organ distribution studies, general method: For organ distribution, the respective dose is prepared by dilution of the labeling reaction mixture in injection buffer (0.25 M Na-Acetate pH 7+0.05% Tween20). The ^177Lu-radiolabeled peptide was injected via the tail vein of the nu/nu mice (50 kBq per mouse), transplanted with the respective cell line. At indicated time points after injection the animals were sacrificed. Blood, heart, lung, spleen, liver, kidney, muscle, brain, femur, and the tumor were dissected, blotted dry, and weighed. The radioactivity was measured with a γ-counter (CobraII; Canberra Packard) along with a sample of the injection solution to calculate the percentage injected dose per gram of tissue (% ID/g).
(§4) The γ- and β-emitter ^177LuCl3 (NEZ307D, Perkin Elmer, in 0.04 M HCl), with a t1/2 of 6.7 days was used for both in vivo biodistribution and internalization studies. Labeling reactions were performed by adding 10 μL ^177LuCl3 (˜10 MBq) in 50 mM HCl, 2 μL of the diluted peptide (1 mM solution in 50 mM HEPES buffer pH 7+0.1% Tween 20 diluted from a 10 mM DMSO stock) to 50 μL 50 mM HEPES buffer pH 7 supplemented with 0.1% Tween 20. The reaction mixture was incubated at 98° C. for 10 minutes. The radiochemical yield (RCY) was determined using high performance liquid chromatography (HPLC) system equipped with a Latek P402 (Latek, Eppelheim, Germany), a HITACHI variable UV detector (absorbance was measured at 214 and 254 nm) and a gamma detector (Bioscan, WA, USA), using a Chromolith RP-18 column (100×4.6 mm; Merck). The analytical HPLC run was performed at 4 mL/min, using a linear A (0.1% trifluoroacetic acid (TFA) in water) to B (0.1% TFA in acetonitrile) gradient (0% B to 100% B in 6 min). Thin-layer chromatography was performed in parallel to confirm the results of the radio-HPLC. The RCY was generally >95%, and thus, the output of labelling reactions was directly diluted with the appropriate buffer and further unlabeled peptide if required, to use in subsequent experiments.
(§5) 5×10^6 cells of HT1080 were subcutaneously inoculated into the right trunk of male 6-week-old BALB/c nu/nu mice (Charles River Laboratories). The tumors were grown for approximately 1 week, to a maximum size of ˜200 mm^3. Respective doses were prepared by mixing a fixed quantity of 5 pmoles ^177Lu labelled peptides (at approx. 50 kBq) with different quantities of non-labelled peptide (derived from 1 mM stock solution in 0.25 M sodium acetate pH 7+0.05% Tween20) in 100 μL injection buffer (0.25 M sodium acetate pH 7+0.05% Tween20). 3 animals were used per dose and timepoint. Radiolabelled peptide solutions were injected via the tail vein, followed by sacrifice at various time points. Organs of interest (blood, heart, lung, spleen, liver, kidney, muscle, small intestine, brain, HT1080 tumor) were dissected, blotted dry, and weighed. The radioactivity was measured using a gamma counter and calculated as % ID/g.

A further data set deals with HT1080 tumor. The description is as above. The data set is classed as in vivo, BALB/c nu/nu mice. As to the method: as §1, §2, §3, §4, §5

With `C[C@H](NC(=O)CN(C)C(=O)CN(C)C(=O)CN(C)C(=O)CN(C)C(=O)CN(C)C(=O)CN(C)C(=O)CN(C)C(=O)CN(C)C(=O)CN(C)C(=O)CN(C)C(=O)CCNC(=O)CN1CCN(CC(=O)O)CCN(CC(=O)O)CCN(CC(=O)O)CC1)C(=O)N[C@H]1CSCc2cc3cc(c2)CSC[C@H](NC(=O)[C@H](C)NC(=O)[C@H](Cc2cccc4ccccc24)NC(=O)[C@H](CCC(=O)O)NC(=O)[C@H](CC(N)=O)NC(=O)[C@@H](C)NC1=O)C(=O)N[C@@H](C)C(=O)N[C@@H](CC(=O)O)C(=O)N[C@@H](Cc1ccccc1)C(=O)N[C@@H](Cc1ccc(O)cc1)C(=O)N[C@@H](CC(=O)O)C(=O)N[C@@H](C(C)(C)C)C(=O)N[C@H](C(N)=O)CSC3` [I-27] ({DOTA-βAla}-[Sar][Sar][Sar][Sar][Sar][Sar][Sar][Sar][Sar][Sar]AC[dA]NE[1Nal]ACADFYD[Tle]C-NH2; linker 12-18-25 via TBMB), the Kd on MT1-MMP hemopexin domain is > 5 µM. Moreover, in data set [1], the tissue uptake at 1 h was 0.28 ± 0.05 %ID/g. With `C[C@H](NC(=O)CN1CCN(CC(=O)O)CCN(CC(=O)O)CCN(CC(=O)O)CC1)C(=O)N[C@H]1CSCc2cc3cc(c2)CSC[C@H](NC(=O)[C@H](C)NC(=O)[C@H](Cc2cccc4ccccc24)NC(=O)[C@H](CCC(=O)O)NC(=O)[C@H](CC(N)=O)NC(=O)[C@@H](C)NC1=O)C(=O)N[C@@H](C)C(=O)N[C@@H](CC(=O)O)C(=O)N[C@@H](Cc1ccccc1)C(=O)N[C@@H](Cc1ccc(O)cc1)C(=O)N[C@@H](CC(=O)O)C(=O)N[C@@H](C(C)(C)C)C(=O)N[C@H](C(N)=O)CSC3` [I-26] ({DOTA}-AC[dA]NE[1Nal]ACADFYD[Tle]C-NH2; linker 2-8-15 via TBMB), the dissociation constant (Kd) at MT1-MMP hemopexin domain was > 5 µM. Besides, the “tumor uptake compared with the binding variant I-23” value with HT1080 tumor (organ distribution, FIG. 8) was “essentially absent”.

`CC(C)[C@H](NC(=O)[C@@H](CC(=O)O)NC(=O)[C@H](Cc1c[nH]cn1)NC(=O)CN(C)C(=O)CN(C)C(=O)CN(C)C(=O)CN(C)C(=O)CN(C)C(=O)CN(C)C(=O)CN(C)C(=O)CN(C)C(=O)CN(C)C(=O)CN(C)C(=O)CCNC(=O)CN1CCN(CC(=O)O)CCN(CC(=O)O)CCN(CC(=O)O)CC1)C(=O)N1CCC[C@H]1C(=O)N[C@H]1CSCc2cc3cc(c2)CSC[C@H](NC(=O)[C@H](Cc2cccc4ccccc24)NC(=O)[C@H](Cc2ccccc2)NC(=O)C(C)(C)NC(=O)CNC(=O)[C@H](Cc2cccc4ccccc24)NC(=O)[C@@H]2CCCN2C1=O)C(=O)N1CCC[C@H]1C(=O)N[C@@H](C(C)(C)C)C(=O)N[C@@H](CC(N)=O)C(=O)N[C@@H](CCCNC(=N)N)C(=O)NC(C)(C)C(=O)N[C@H](CC(=O)O)C(=O)N[C@H](C(N)=O)CSC3` [I-17] ({DOTA-βAla}-[Sar][Sar][Sar][Sar][Sar][Sar][Sar][Sar][Sar][Sar]H[dD]VPCP[1Nal]G[Aib]F[1Nal]CP[Tle]NR[Aib][dD]C-NH2; linker 15-22-29 via TBMB): in the data set on HT1080 tumor (1 h post injection), the “blocking of tumor uptake at a dose of 500 pmoles” value is “slightly blocked” and the “blocking of tumor uptake using 5 nmoles” value is listed as “nearly completely blocked”. As for `CCCCCCCCCCCCCCCC(=O)NCCC(=O)N(C)CC(=O)N(C)CC(=O)N(C)CC(=O)N(C)CC(=O)N(C)CC(=O)N[C@@H](CCCCNC(=O)CN1CCN(CC(=O)O)CCN(CC(=O)O)CCN(CC(=O)O)CC1)C(=O)N(C)CC(=O)N(C)CC(=O)N(C)CC(=O)N(C)CC(=O)N(C)CC(=O)N(C)CC(=O)N(C)CC(=O)N(C)CC(=O)N(C)CC(=O)N(C)CC(=O)N[C@@H](C)C(=O)N[C@H]1CSCc2cc3cc(c2)CSC[C@H](NC(=O)[C@H](C)NC(=O)[C@H](Cc2cccc4ccccc24)NC(=O)[C@H](CCC(=O)O)NC(=O)[C@H](CC(N)=O)NC(=O)[C@@H](C)NC1=O)C(=O)N[C@@H](C)C(=O)N[C@@H](CC(=O)O)C(=O)N[C@@H](Cc1ccccc1)C(=O)N[C@@H](Cc1ccc(O)cc1)C(=O)N[C@@H](CC(=O)O)C(=O)N[C@@H](C(C)(C)C)C(=O)N[C@H](C(N)=O)CSC3` [I-29] ({Palmitoyl-βAla}-[Sar][Sar][Sar][Sar][Sar]K(DOTA)[Sar][Sar][Sar][Sar][Sar][Sar][Sar][Sar][Sar][Sar]AC[dA]NE[1Nal]ACADFYD[Tle]C-NH2; linker 18-24-31 via TBMB), the tumour uptake in the data set with HT1080 tumor (750 pmole per mouse, 6 hour timepoint) was 4.8%.
